Results: patent US20050025760A1 (KEIO UNIVERSITY, published 2005)

Biological target: T1, Dsg1-M1-2 (human, UniProt Q02413 50-545, H25T; C28Y; A29Q; N31T; Q33K; V34I)
T1 construct: extracellular domain; Dsg1-specific residues changed to the Dsg3-specific ones; also called hDsg1-M1-2
T1 sequence (looked up): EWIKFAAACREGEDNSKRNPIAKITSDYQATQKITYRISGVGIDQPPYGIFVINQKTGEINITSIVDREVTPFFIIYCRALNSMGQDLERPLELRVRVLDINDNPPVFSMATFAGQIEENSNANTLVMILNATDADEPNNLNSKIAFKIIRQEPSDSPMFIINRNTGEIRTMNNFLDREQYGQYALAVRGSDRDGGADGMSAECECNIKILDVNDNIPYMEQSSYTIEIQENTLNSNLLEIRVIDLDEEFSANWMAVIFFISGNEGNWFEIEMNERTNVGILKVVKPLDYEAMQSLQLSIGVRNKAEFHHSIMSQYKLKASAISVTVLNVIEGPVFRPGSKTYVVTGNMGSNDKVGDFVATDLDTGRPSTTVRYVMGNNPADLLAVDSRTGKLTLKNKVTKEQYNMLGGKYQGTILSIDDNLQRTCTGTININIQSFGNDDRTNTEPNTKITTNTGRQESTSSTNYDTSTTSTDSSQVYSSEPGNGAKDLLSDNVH
Test: immunoprecipitation of point-mutated molecules (FIG. 5)

- binding result: no binding
B1: anti-Dsg3 monoclonal antibody AK23 (antibody, mouse IgG1, V domains shown)
VH: QVQLQQSGTELVKPGASVKLSCKSSGYTFTSYWINWVKQRPGQGLEWIGNINPSNGGINYNEKFKSKATLTVDKSSSTAYMQLKSLTSEDSAVYYCARGGYDGYPWGQGTTVTVS
VL: DIQMTQSPKFLLVSAGDRVTITCKASQSVSYDVAWYQQKPGQSPKLLISYASNRYTGVPDRFTGSGYGSDFTFTISTVQTEDLAVYFCQQDYSSPWTFGGGTKLELKR
notes: Mouse IgG1 kappa hybridoma antibody
